Data on two molecules can be found in PMC11479942, “XPD stalled on cross-linked DNA provides insight into damage verification”.

Series [1] addresses super-unplugged XPD variant (Chaetomium thermophilum).
Series [2] concerns the target T1, XPD wild type (ctXPD) (Chaetomium thermophilum (paper: C. …, UniProt G0RZH0 1-780)).
T1 sequence: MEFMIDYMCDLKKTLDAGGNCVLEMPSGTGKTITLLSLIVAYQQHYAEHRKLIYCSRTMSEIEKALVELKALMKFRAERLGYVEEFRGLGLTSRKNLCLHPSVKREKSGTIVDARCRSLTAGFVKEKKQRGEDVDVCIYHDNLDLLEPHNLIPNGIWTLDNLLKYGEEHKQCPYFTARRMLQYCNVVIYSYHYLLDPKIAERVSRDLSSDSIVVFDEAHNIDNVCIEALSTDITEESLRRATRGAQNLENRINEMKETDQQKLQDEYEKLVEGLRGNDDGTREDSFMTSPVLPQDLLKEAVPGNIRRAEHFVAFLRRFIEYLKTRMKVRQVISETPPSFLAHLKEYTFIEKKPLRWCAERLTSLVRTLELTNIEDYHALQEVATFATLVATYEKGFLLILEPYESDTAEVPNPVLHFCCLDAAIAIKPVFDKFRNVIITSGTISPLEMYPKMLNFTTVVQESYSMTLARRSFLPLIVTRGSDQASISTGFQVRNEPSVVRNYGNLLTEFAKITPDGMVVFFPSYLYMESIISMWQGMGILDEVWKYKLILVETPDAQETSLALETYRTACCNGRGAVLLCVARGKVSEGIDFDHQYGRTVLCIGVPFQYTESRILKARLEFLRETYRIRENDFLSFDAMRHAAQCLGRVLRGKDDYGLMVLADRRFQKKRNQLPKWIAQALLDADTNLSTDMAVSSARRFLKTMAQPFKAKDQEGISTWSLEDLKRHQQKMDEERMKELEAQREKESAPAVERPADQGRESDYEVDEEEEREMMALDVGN
The series is described as follows: fluorescence anisotropy; 5 mM MgCl2, no nucleotide; Fluorescence anisotropy: 20 mM HEPES pH 7.5, 50 mM KCl, 5 mM MgCl2, 1 mM TCEP, 5 nM DNA, room temperature; cryo-EM: same buffer, 10 uM complex, DNA 1.25:1, 5 mM ATP. Particulars: protein: recombinant; tags: N-terminal 6xHis, TEV site (pBADM-11); label: 5' Cy3; hairpin with 5' overhang. For orientation: Fluorescence polarisation rises when a labelled molecule tumbles more slowly, as on binding a larger partner.

Broadly, the Kd is the equilibrium constant for the complex coming apart.

Take “XPG D924A from Chaetomium thermophilum (enzyme)”: in series [1], the XPD helicase activity (fluorescence-based, Y-forked DNA 250 nM, XPD–p44 250 nM) with equimolar XPG D924A (250 nM); inhibition by XPG D924A came out at 6 fold.

B1: 5' overhang self-annealing hairpin (structured_DNA)
DNA: TTTTTTTTTTTTTTTCCCGGCCATGCGAAGCATGGCCGTT
Take B1: the Kd in series [2] stood at 30 nM.
